{"source": "paper PMC2921345", "key": {"[1]": {"molecular_target": "mRFP-Toca-1 (Transducer of Cdc42-dependent actin assembly, wild type)", "experiment": "AP-FRET (acceptor photobleaching FRET) in transfected cells"}, "[2]": {"molecular_target": "mRFP-Toca-1 (Transducer of Cdc42-dependent actin assembly, wild type) (human)", "sequence (Q5T0N5 whole entry)": "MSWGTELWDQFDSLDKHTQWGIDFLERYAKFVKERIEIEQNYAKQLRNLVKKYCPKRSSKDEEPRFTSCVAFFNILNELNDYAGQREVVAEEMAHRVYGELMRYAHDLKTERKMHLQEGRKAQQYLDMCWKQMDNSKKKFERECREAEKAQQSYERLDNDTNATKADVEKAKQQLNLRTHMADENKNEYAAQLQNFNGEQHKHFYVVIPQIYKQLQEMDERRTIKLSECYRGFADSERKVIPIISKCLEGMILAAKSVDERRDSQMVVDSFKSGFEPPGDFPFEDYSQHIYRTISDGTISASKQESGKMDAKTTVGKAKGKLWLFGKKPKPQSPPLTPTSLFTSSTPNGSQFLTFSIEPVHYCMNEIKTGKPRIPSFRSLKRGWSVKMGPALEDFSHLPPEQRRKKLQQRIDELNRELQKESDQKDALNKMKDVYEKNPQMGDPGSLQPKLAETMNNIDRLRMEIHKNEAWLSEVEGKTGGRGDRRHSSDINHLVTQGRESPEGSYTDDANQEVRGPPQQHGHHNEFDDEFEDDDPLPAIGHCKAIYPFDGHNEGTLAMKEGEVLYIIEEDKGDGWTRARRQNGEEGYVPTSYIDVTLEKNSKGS", "experiment": "FRET or BRET; frequency-domain FLIM of the GFP donor (LIFA system, 40 MHz) in cells co-expressing GFP and mRFP proteins; lifetime of GFP in cells approximately 2.2 ns"}, "[3]": {"molecular_target": "GFP-N-WASP (neuronal Wiskott Aldrich syndrome protein, wild type) (UniProt O08816)", "experiment": "AP-FRET (acceptor photobleaching FRET) in transfected cells", "conditions": "mRFP-Toca-1MGD383-385IST and GFP-N-WASP; 36 hr expression; n = 7-10, from 2-3 experiments"}}}
{"substance": "Cdc42 (wild type) G12V", "values": [{"measurement": "other: FRET efficiency", "setting": "[1]; ROI on tubules, mRFP-Toca-1, HA-N-WASP and GFP-Cdc42G12V co-expressed, 36 hours expression", "result": 9, "unit": "%"}, {"measurement": "other: FRET efficiency", "setting": "[1]; ROI on vesicles, mRFP-Toca-1, HA-N-WASP and GFP-Cdc42G12V co-expressed, 36 hours expression", "result": 0.03, "unit": "%"}]}
{"substance": "GFP-N-WASP (neuronal Wiskott Aldrich syndrome protein, wild type) (from UniProt O08816 1-501) (natural protein)", "values": [{"measurement": "GFP donor lifetime (FLIM), in tubules", "setting": "[2]", "result": 1.59, "unit": "ns"}, {"measurement": "GFP donor lifetime (FLIM), in vesicles", "setting": "[2]", "result": 1.64, "unit": "ns"}]}
{"substance": "GFP-N-WASP (neuronal Wiskott Aldrich syndrome protein, wild type) (from UniProt O08816) H208D", "values": [{"measurement": "other: FRET efficiency", "setting": "[1]; mRFP-Toca-1 and GFP-N-WASPH208D, 36 hr expression, n = 7-10, from 2-3 experiments", "result": 3.87, "unit": "%"}]}
{"substance": "mRFP-Toca-1 (Transducer of Cdc42-dependent actin assembly, wild type) M383I; G384S; D385T", "values": [{"measurement": "other: FRET efficiency", "setting": "[3]", "result": 17.5, "unit": "%"}]}
